{"source": "paper PMC12329027", "about": "(Communications Chemistry, 2025)", "biological_target": "the molecule itself", "assay": "cryo-EM structure", "data": [{"protein": "full-length human αA-crystallin carrying the pathological mutation R116C (natural protein) MDVTIQHPWFKRTLGPFYPSRLFDQFFGEGLFEYDLLPFLSSTISPYYRQSLFRTVLDSGISEVRSDRDKFVIFLDVKHFSPEDLTVKVQDDFVEIHGKHNERQDDHGYISREFHCRYRLPSNVDQSALSCSLSADGMLTFCGPKIQTGLDATHAERAIPVSREEKPTSAPSS", "values": [{"measurement": "binding result", "value": "binds"}]}]}
